This note sets out measurements from IntAct's records for PubMed 10393177.

The chains are these.
B1: Stress-activated protein kinase jnk-1 (Caenorhabditis elegans), Q8WQG9 (parent)
chain: MEERLSTTSSYPSHPGRSVEEDHNTLLASSSISSIIRGTRGHLNNFIESVGNWLVPSSSGRDDDAVSLDSCQSVYSPVRHHINSGTGGGILMEPSSIHVPENYYSVTIGEAQMVVLKRYQNLRLIGSGAQGIVCSAFDTVRNEQVAIKKLSRPFQNVTHAKRAYRELKLMSLVNHKNIIGILNCFTPQKKLDEFNDLYIVMELMDANLCQVIQMDLDHERLSYLLYQMLCGIRHLHSAGIIHRDLKPSNIVVRSDCTLKILDFGLARTAIEAFMMTPYVVTRYYRAPEVILGMGYKENVDVWSIGCIFGELIRGRVLFPGGDHIDQWTRIIEQLGTPDRSFLERLQPTVRNYVENRPRYQATPFEVLFSDNMFPMTADSSRLTGAQARDLLSRMLVIDPERRISVDDALRHPYVNVWFDEIEVYAPPPLPYDHNMDVEQNVDSWREHIFRELTDYARTHDIYS

Variants of B1 are the subject of the test. The settings on record: with jun_human JUN.
Turning to K148R, the “effect of a mutation on the interaction” value is recorded as “disrupting interaction”.
